Assay results from US9308238B2, “Compositions and methods for modulating EMT and uses thereof” (Whitehead Institute for Biomedical Research, priority 2010, dated 2016).

How the values were obtained:
Format in all cases: cell-based, human
HMLE^24+ cells = assay: Boyden chamber migration assay, HMLE^24+ cells
Method: FIGS. 3A-3E. Autocrine Signaling controls migration and mammosphere formation.
(§1) FIGS. 5A-5H. Concomitant stimulation of Wnt and TGF-beta pathways allows HMLE^24+ cells to enter into a mesenchymal and SC-like state. (FIG. 5A) RT-PCR: N-Cadherin, Zeb1 and Zeb2, L32 was loading control, n=3. Prior RNA isolation, HMLE^24+-shGFP or -shSFRP1 (stable knockdown of SFRP1, FIG. 12A) cells were treated for 3 days with daily doses of indicated factors: anti-DKK1 antibody (10 μg/ml), anti-E-Cadherin antibody (1 μg/ml), TGF-beta 1 (5 ng/ml), Wnt5a (250 ng/ml), (FIG. 5B) Brightfield microscopy: images of control, TGF-beta- and iEMT-cocktail treated HMLE^24+ cells after 14 days of treatment as indicated (see also FIG. 12D). (FIG. 5C) RT-PCR: Zeb1, Zeb2, E-Cadherin and N-Cadherin, L32 was loading control, n=3. After 14 day treatment, cells were expanded in absence of further stimulation for 4 passages. Shown are PBS-treated control HMLE^24+-shGFP and HMLE^24+-shSFRP1 cells, two HMLE^24+-shGFP cultures treated with TGF-beta 1 (TGF-β-a and -b), two HMLE^24+-shSFRP1 cultures treated with the iEMT-cocktail (iEMT-a and -b). (FIG. 5D) Immunoblot: EMT markers and associated autocrine pathways, cells generated as described in (C). (FIG. 5E) Migration (Boyden Chamber Assay) and Mammosphere Assay: cells generated as indicated in (C), *control vs. TGF-beta treatment, p<1×10^−4, **control vs. iEMT-treatment, p<1×10^−9, n(migration)=3, n(mammospheres)/1000 cells, n=7. (FIG. 5F) Flow cytometry: CD44 and CD24 cell-surface marker expression in control, TGF-beta-a and iEMT-a cells generated as described in (C). (FIG. 5G) Lung metastasis: cells expanded for 8 passages after cessation of treatment as described in (C) were transformed with RAS; 1.0×10^5 cells were injected into the mammary fat pads of mice; GFP-labeled metastases on the surface of the lungs were quantified; *control vs. all other groups, p<0.05, n=5 mice/group. […]

MSP-RAS cells = assay: Boyden chamber migration assay, MSP-RAS cells; conditions: SFRP1 1 μg/ml, BMP4 0.5 μg/ml
Method: FIGS. 4A-4G. Autocrine Signaling controls tumorigenicity and metastasis of MSP-RAS cells. (FIG. 4A) Migration assay: RAS-transformed MSP (MSP-RAS) were seeded in Boyden Chamber migration assays and recombinant SFRP1 (1 μg/ml) and BMP4 protein (0.5 μg/ml) were added; *control vs. single treatment, p<1×10^−8, **single vs. double treatment with SFRP1 and BMP4 (S+B), p<1×10^−4, n=3. […] (FIG. 4E) Lung metastasis: fluorescence microscopy images of the major left lung lobe showing GFP-expressing metastatic nodules and quantification of the number of lung surface metastases; *control vs. SFRP1 treatment, p<0.05, **SFRP1 vs. BMP4 or double treatment (S+B), p<0.05, n=5 mice/group. (FIG. 4F) Liver metastasis: fluorescence microscopy images of the liver surface showing GFP-expressing micro-metastatic nodules after implantation of cells as described in (D) and quantification: 5 fields of liver surface were counted per mouse, *control vs. single treatment, p<0.05, **single vs. double treatment (S+B), p<0.05, n=5 mice/group. […]

HMLE-iEMT-a cells = assay: Mammosphere assay, iEMT-cells; conditions: SFRP1 1 μg/ml/d, BMP4 0.5 μg/ml/d; extent comparable to HTwist and MSP cells
Method: as §1, with “(FIG. 5D) Immunoblot: EMT markers and associated autocrine pathways, cells generated as described in (C). (FIG. 5E) Migration (Boyden Chamber Assay) and Mammosphere Assay: cells generated as indicated in (C), *control vs. TGF-beta treatment, p<1×10^−4, **control vs. iEMT-treatment, p<1×10^−9, n(migration)=3, n(mammospheres)/1000 cells, n=7. (FIG. 5F) Flow cytometry: CD44 and CD24 cell-surface marker expression in control, TGF-beta-a and iEMT-a cells generated as described in (C).” left out

| Molecule | increase in ability to migrate vs untreated control cells (HMLE^24+ cells; after 14 day treatment) | motility of HMLE^24+ cells upon addition of protein (HMLE^24+ cells; 0.5 μg/ml in growth medium) | decrease of motility in vitro (MSP-RAS cells) | effect on mammosphere formation of iEMT-cells (HMLE-iEMT-a cells) |
| --- | --- | --- | --- | --- |
| TGF-beta 1: recombinant TGF-beta 1 protein, used at 5 ng/ml | not in motility |  |  |  |
| SFRP1: Recombinant human SFRP1 protein (R&D Systems), secreted decoy receptor binding canonical and non-canonical Wnt ligands (protein, UniProt Q8N474 32-314, looked up) Secreted frizzled-related …: SEYDYVSFQSDIGPYQSGRFYTKPPQCVDIPADLRLCHNVGYKKMVLPNLLEHETMAEVKQQASSWVPLLNKNCHAGTQVFLCSLFAPVCLDRPIYPCRWLCEAVRDSCEPVMQFFGFYWPEMLKCDKFPEGDVCIAMTPPNATEASKPQGTTVCPPCDNELKSEAIIEHLCASEFALRMKIKEVKKENGDKKIVPKKKKPLKLGPIKKKDLKKLVLYLKNGADCPCHQLDNLSHHFLIMGRKVKSQYLLTAIHKWDKKNKEFKNFMKKMKNHECPTFQSVFK |  | not further reduced | 9 fold | inhibited |
| BMP4: Recombinant BMP4 protein obtained from Stemgent (protein, UniProt P12644 293-408, looked up) Bone morphogenetic protein 4: SPKHHSQRARKKNKNCRRHSLYVDFSDVGWNDWIVAPPGYQAFYCHGDCPFPLADHLNSTNHAIVQTLVNSVNSSIPKACCVPTELSAISMLYLDEYDKVVLKNYQEMVVEGCGCR |  |  | 4 fold | inhibited |
